We go through 1 substance from patent US20110154541A1.

This test deals with horse-heart mitochondrial cytochrome c (horse) (UniProt P00004). Nature of the test: cell-based or functional assay.
Chain of UniProt P00004 (P00004 2-105 limits assumed): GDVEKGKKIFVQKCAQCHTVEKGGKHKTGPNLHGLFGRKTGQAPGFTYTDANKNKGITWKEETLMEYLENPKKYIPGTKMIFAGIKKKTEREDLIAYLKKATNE

On to “Photosystem II with variant D1 protein D1-K238E, in thylakoid membranes isolated from the Synechocystis sp. PCC 6803 Glu mutant strain (from UniProt P16033 1-344)”, for which the rate of cc reduction (light-dependent, increase of the cc alpha peak at 550 nm), with DCMU (µmol/(mg chl·h)) was 20 and the rate of cc reduction (light-dependent, increase of the cc alpha peak at 550 nm), without DCMU (µmol/(mg chl·h)) is 12.
